Earlier results on 3 substances are cited in publication PMC4776130.

One data set deals with Asp20 (UniProt position 41, SWTCEDFLAVD). Briefly: NMR. The conditions noted are these: HdeA dimer (remains dimeric from pH 6 down to pH 3).
Another data set has as its target Asp25 (UniProt position 46, DFLAVDESFQP). Kind of data set: NMR. The conditions noted are these: HdeA dimer (remains dimeric from pH 6 down to pH 3).
A further data set has as its target Asp43 (UniProt position 64, ALNNKDKPEDA). Kind of data set: NMR. The conditions noted are these: HdeA dimer (remains dimeric from pH 6 down to pH 3).
In the next data set the target is Asp47 (UniProt position 68, KDKPEDAVLDV). Briefly: NMR. The settings on record: HdeA dimer (remains dimeric from pH 6 down to pH 3).
The target in another data set is Asp51 (UniProt position 72, EDAVLDVQGIA). Briefly: NMR. The conditions noted are these: HdeA dimer (remains dimeric from pH 6 down to pH 3).
A further data set concerns the target Asp69 (UniProt position 90, QACTQDKQANF). Briefly: NMR. The settings on record: HdeA dimer (remains dimeric from pH 6 down to pH 3).
A further data set has as its target Asp76 (UniProt position 97, QANFKDKVKGE). Kind of data set: NMR. The settings on record: HdeA dimer (remains dimeric from pH 6 down to pH 3).
In data set [1] the target is Asp83 (UniProt position 104, VKGEWDKIKKD). Briefly: NMR. The settings on record: HdeA dimer (remains dimeric from pH 6 down to pH 3).
In the next data set the target is Glu19 (UniProt position 40, NSWTCEDFLAV). Kind of data set: NMR. The conditions noted are these: HdeA dimer (remains dimeric from pH 6 down to pH 3).
The target in a further data set is Glu26 (UniProt position 47, FLAVDESFQPT). Kind of data set: NMR. The settings on record: HdeA dimer (remains dimeric from pH 6 down to pH 3).
For the next data set, the target named is Glu46 (UniProt position 67, NKDKPEDAVLD). Kind of data set: NMR. The conditions noted are these: HdeA dimer (remains dimeric from pH 6 down to pH 3).
Another data set concerns the target Glu81 (UniProt position 102, DKVKGEWDKIK). Kind of data set: NMR. The settings on record: HdeA dimer (remains dimeric from pH 6 down to pH 3).
Data set [2] addresses T1, His15 (UniProt position 33, AAMKRHGLDNY). Briefly: NMR.
The target of data set [3] is T1, His15.
Another data set has as its target Asp19 (UniProt position 101, LIKAIDGDTVK). The conditions noted are these: folded SNase Delta+PHS.
A further data set addresses Asp21 (UniProt position 103, KAIDGDTVKLM). The settings on record: folded SNase Delta+PHS.
The next data set deals with Asp40 (UniProt position 122, RLLLVDTPETK). The settings on record: folded SNase Delta+PHS.
A further data set concerns the target Asp77 (UniProt position 159, IEVEFDKGQRT). The settings on record: folded SNase Delta+PHS.
The target of data set [4] is Asp83 (UniProt position 165, KGQRTDKYGRG). The settings on record: folded SNase Delta+PHS.
The target in a further data set is Asp95 (UniProt position 177, AYIYADGKMVN). The conditions noted are these: folded SNase Delta+PHS.
Another data set addresses Glu10 (UniProt position 92, KKLHKEPATLI). The conditions noted are these: folded SNase Delta+PHS.
The target of another data set is Glu101 (UniProt position 183, GKMVNEALVRQ). The conditions noted are these: folded SNase Delta+PHS.
The target in a further data set is Glu122 (UniProt position 204, GNNTHEQLLRK). The settings on record: folded SNase Delta+PHS.
A further data set has as its target Glu129 (UniProt position 211, LLRKAEAQAKK). The settings on record: folded SNase Delta+PHS.
The target in a further data set is Glu135 (UniProt position 217, AQAKKEKLNIW). The settings on record: folded SNase Delta+PHS.
Another data set concerns the target Glu43 (UniProt position 125, LVDTPETKHPK). The settings on record: folded SNase Delta+PHS.
For the next data set, the target named is Glu52 (UniProt position 134, PKKFNEKYGPE). The settings on record: folded SNase Delta+PHS.
A further data set addresses Glu57 (UniProt position 139, EKYGPEASAFT). The settings on record: folded SNase Delta+PHS.
The target in another data set is Glu67 (UniProt position 149, TKKMVENAKKI). The conditions noted are these: folded SNase Delta+PHS.
The target in the next data set is Glu73 (UniProt position 155, NAKKIEVEFDK). The conditions noted are these: folded SNase Delta+PHS.
In the next data set the target is Glu75 (UniProt position 157, KKIEVEFDKGQ). The conditions noted are these: folded SNase Delta+PHS.
A further data set addresses His121 (UniProt position 203, KGNNTHEQLLR).
The target of a further data set is His8 (UniProt position 90, STKKLHKEPAT).

Read-outs that look alike come from different tables or passages of the source.

As a reminder, the pKa is the negative logarithm of the acid dissociation constant. With “Acid stress chaperone HdeA (Escherichia coli)”, the pKa is listed as 3.66 with Asp20; 3.71 in the data set with Asp25; 3.87 with Asp43; 4.14 with Asp47; 3.83 in the data set with Asp51; 3.74 with Asp69. Moreover, the pKa with Asp76 was 3.75; in the data set with Asp83 [1] it was 3.97; with Glu19 it was 4.38; with Glu26, 4.57; with Glu46, 4.07; with Glu81, 4.23.
In the case of “Hen egg-white lysozyme (HEWL) (Gallus gallus)”, the pKa was 5.5 ± 0.2 with His15 [2] and 5.68–5.74 with His15 [3].
Consider “Staphylococcal nuclease (SNase), Delta+PHS variant (Staphylococcus aureus; G50F;V51N;P117G;H124L;S128A;del44-49)”, for which the pKa with Asp19 was 2.21; in the data set with Asp21, 6.54; with Asp40 it was 3.87; with Asp77, less than 2.2; with Asp83 [4], less than 2.2; in the data set with Asp95 it was 2.16. Moreover, the pKa with Glu10 is 2.82; with Glu101, 3.81; with Glu122 it was 3.89; with Glu129, 3.75; in the data set with Glu135, 3.76; in the data set with Glu43, 4.32. Moreover, the pKa with Glu52 was 3.93; with Glu57, 3.49; with Glu67, 3.76; with Glu73, 3.31; in the data set with Glu75 it was 3.26; in the data set with His121 it was 5.25. Further, the pKa with His8 is on record as 6.50.
